Data as given in article PMC4897654, “hSSB1 (NABP2/OBFC2B) is regulated by oxidative stress” (Scientific Reports, 2016).

Experiments:
[1] = biological target: the molecule itself; test: non-reducing SDS-PAGE; recombinant hSSB1 proteins purified under non-reducing conditions, no reducing agent; Coomassie blue (2 μg) and anti-hSSB1 immunoblot (500 ng)
[2] = biological target: the molecule itself; test: non-reducing SDS-PAGE with immunoblot; whole cell lysates of U2OS cells (2% O2) treated with 250 μM H2O2 or 30 mM KBrO3 for 30 min; loading buffer without DTT; probed for endogenous hSSB1
[3] = biological target: the molecule itself; test: SEC-MALS; non-reduced (oxidized) protein, ~200-250 μg on Superose 12 10/30; 20 mM Tris pH 7, 100 mM NaCl, 1 mM EDTA, without TCEP

B1: recombinant C99S hSSB1 (natural protein, human, UniProt Q9BQ15 1-211, looked up)
chain: MTTETFVKDIKPGLKNLNLIFIVLETGRVTKTKDGHEVRTCKVADKTGSINISVWDDVGNLIQPGDIIRLTKGYASVFKGCLTLYTGRGGDLQKIGEFSMVYSEVPNFSEPNPEYSTQQAPNKAVQNDSNPSASQPTTGPSAASPASENQNGNGLSAPPGPGGGPHPPHTPSHPPSTRITRSQPNHTPAGPPGPSSNPVSNGKETRRSSKR
notes: human hSSB1 (NABP2/OBFC2B) with cysteine 99 mutated to serine; source: E. coli T7 shuffle strain, purified under non-reducing conditions
binding result [1]: binds

B2: human single-stranded DNA binding protein 1 (hSSB1), endogenous (natural protein, human (endogenous in U2OS), UniProt Q9BQ15 1-211, looked up)
chain: MTTETFVKDIKPGLKNLNLIFIVLETGRVTKTKDGHEVRTCKVADKTGSINISVWDDVGNLIQPGDIIRLTKGYASVFKGCLTLYTGRGGDLQKIGEFCMVYSEVPNFSEPNPEYSTQQAPNKAVQNDSNPSASQPTTGPSAASPASENQNGNGLSAPPGPGGGPHPPHTPSHPPSTRITRSQPNHTPAGPPGPSSNPVSNGKETRRSSKR
notes: also called NABP2; OBFC2B; source: endogenous, U2OS whole cell lysate
stoichiometry N [2]: ~4

B3: recombinant hSSB1 (hexa-histidine tagged, wild type) (natural protein, human, UniProt Q9BQ15 1-211, looked up)
chain: MTTETFVKDIKPGLKNLNLIFIVLETGRVTKTKDGHEVRTCKVADKTGSINISVWDDVGNLIQPGDIIRLTKGYASVFKGCLTLYTGRGGDLQKIGEFCMVYSEVPNFSEPNPEYSTQQAPNKAVQNDSNPSASQPTTGPSAASPASENQNGNGLSAPPGPGGGPHPPHTPSHPPSTRITRSQPNHTPAGPPGPSSNPVSNGKETRRSSKR
notes: Oxidized and reduced preparations are the same construct; also called his-hSSB1; hSSB1 WT; source: E. coli T7 shuffle strain (Δgor ΔtrxB), purified (SP sepharose, Ni-NTA, Superdex200); without reducing agents ("oxidized") or with 1 mM DTT in all buffers ("reduced")
stoichiometry N [1]: 2
stoichiometry N [3]: > 3

B4: recombinant C81S hSSB1 (natural protein, human, UniProt Q9BQ15 1-211, looked up)
chain: MTTETFVKDIKPGLKNLNLIFIVLETGRVTKTKDGHEVRTCKVADKTGSINISVWDDVGNLIQPGDIIRLTKGYASVFKGSLTLYTGRGGDLQKIGEFCMVYSEVPNFSEPNPEYSTQQAPNKAVQNDSNPSASQPTTGPSAASPASENQNGNGLSAPPGPGGGPHPPHTPSHPPSTRITRSQPNHTPAGPPGPSSNPVSNGKETRRSSKR
notes: human hSSB1 (NABP2/OBFC2B) with cysteine 81 mutated to serine; source: E. coli T7 shuffle strain, purified under non-reducing conditions
binding result [1]: binds
